Experiments:
hRGMc-His [1] = target: T1, hRGMc-His (human, UniProt Q6ZVN8 36-400, limits assumed); assay: hRGMc-His ELISA
T1 construct: also called human RGMc; not shown: His tag
T1 sequence (looked up): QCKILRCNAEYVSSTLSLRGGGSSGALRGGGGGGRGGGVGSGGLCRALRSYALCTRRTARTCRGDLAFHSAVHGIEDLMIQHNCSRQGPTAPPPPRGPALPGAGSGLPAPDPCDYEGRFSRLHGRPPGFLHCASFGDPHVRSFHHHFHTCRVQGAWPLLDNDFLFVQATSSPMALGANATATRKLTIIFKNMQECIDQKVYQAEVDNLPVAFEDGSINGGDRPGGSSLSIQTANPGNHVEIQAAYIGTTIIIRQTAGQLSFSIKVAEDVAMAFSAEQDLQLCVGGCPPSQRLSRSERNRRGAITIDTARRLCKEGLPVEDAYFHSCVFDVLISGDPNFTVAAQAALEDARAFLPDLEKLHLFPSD

hRGMc-His [2] = target: T1, hRGMc-His; assay: direct binding ELISA (hRGMc-His)
human RGMc = target: T2, human RGMc (human, UniProt Q6ZVN8 36-400, limits assumed); assay: ELISA
T2 construct: ELISA antigen for the yeast-derived antibodies; a human RGMc-Fc was used for negative selection but the ELISA antigen is not specified
T2 sequence (looked up): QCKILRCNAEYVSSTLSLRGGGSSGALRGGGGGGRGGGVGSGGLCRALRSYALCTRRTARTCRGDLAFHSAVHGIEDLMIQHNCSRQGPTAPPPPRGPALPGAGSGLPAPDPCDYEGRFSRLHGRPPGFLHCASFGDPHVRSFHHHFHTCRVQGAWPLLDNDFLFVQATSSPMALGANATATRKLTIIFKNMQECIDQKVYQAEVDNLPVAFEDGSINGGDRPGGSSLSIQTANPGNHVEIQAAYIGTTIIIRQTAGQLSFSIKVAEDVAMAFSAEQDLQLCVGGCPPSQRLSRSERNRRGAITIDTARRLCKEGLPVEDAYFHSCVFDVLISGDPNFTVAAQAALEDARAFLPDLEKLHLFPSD

hRGMa-His [3] = target: T3, hRGMa-His (human, UniProt Q96B86 48-422, limits assumed); assay: BIAcore
T3 construct: also called human RGMa (BIAcore); not shown: His tag
T3 sequence: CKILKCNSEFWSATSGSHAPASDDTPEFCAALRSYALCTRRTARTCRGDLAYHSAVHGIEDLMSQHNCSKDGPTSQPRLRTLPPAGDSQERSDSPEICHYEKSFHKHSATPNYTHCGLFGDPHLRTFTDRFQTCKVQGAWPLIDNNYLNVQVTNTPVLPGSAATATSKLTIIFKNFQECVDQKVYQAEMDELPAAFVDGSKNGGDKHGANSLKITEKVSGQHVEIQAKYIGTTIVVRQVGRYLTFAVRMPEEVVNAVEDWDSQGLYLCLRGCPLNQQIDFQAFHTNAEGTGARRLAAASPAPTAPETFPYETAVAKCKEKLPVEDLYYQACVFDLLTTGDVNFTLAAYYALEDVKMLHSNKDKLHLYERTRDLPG

Cyno RGMa-His = target: T4, Cyno RGMa-His (cynomolgus monkey, UniProt Q9N0A6 54-431, limits assumed); assay: BIAcore
T4 construct: also called cynomolgus (cyno) monkey RGMa (BIAcore); not shown: His tag
T4 sequence (looked up): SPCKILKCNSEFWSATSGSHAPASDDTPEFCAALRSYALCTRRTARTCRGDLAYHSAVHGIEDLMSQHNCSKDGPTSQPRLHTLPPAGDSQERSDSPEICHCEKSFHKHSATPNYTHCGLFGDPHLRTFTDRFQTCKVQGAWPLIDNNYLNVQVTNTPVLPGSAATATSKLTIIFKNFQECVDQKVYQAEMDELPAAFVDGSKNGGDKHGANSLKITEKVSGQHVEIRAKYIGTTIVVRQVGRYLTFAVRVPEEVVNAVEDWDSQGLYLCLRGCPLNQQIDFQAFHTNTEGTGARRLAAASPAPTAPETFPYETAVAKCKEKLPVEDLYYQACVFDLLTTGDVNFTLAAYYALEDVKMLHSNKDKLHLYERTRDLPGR

hRGMc-His [4] = target: T1, hRGMc-His; assay: BIAcore binding
hRGMa-His [5] = target: T3, hRGMa-His; assay: BIAcore; remark: listed apart in the source

Binder | Kd (hRGMa-His [3]) [nM] | koff (hRGMa-His [3]) [s⁻¹] | kon (hRGMa-His [3]) [M⁻¹ s⁻¹] | Kd (Cyno RGMa-His) [nM] | koff (Cyno RGMa-His) [s⁻¹] | kon (Cyno RGMa-His) [M⁻¹ s⁻¹] | binding result (hRGMc-His [4]) | further results
AE12-8 (antibody, V domains shown, lambda light chain) VH: EVQLLESGGGLVKPGGSLRLSCAASGFTFDDYAMHWVRQAPGKGLEWVSLISWDGGSTYYADSVKGRFTISRDNSKNSLYLQMNSLRAEDTALYYCAKDIPKVGGYSYGYGALGYWGQGTPVTVSS VL: SYELTQPPSVSVAPGQTARITCGGNNIGDISVHWYQQKSGQAPMLVVHDDSDRPSGIPERFSGSNSGSSATLTISRVEAGDEADYHCQVWDSGSGHHVFGTGTKVTVL |  |  |  |  |  |  |  | binding result (hRGMc-His [1]): binds
AE12-2 (antibody, V domains shown, lambda light chain) VH: EVQLVQSGAEVKKPGASVKVSCKASGYTFTSYDINWVRQATGQGLEWMGWMNPNSGNTGYAQKFQGRVTMTRNTSISTAYMELSSLRSEDTAVYYCARSTSLSVWGQGTLVTVSS VL: not shown |  |  |  |  |  |  |  | binding result (hRGMc-His [2]): no binding (tested: 100 nM)
AE12-23 (antibody, V domains shown, kappa light chain) VH: EVQLQESGPGLVKPSETLSLTCTVSGGSISGYYWSWIRQSPGKGLEWIGEIFHTGRTYYNPSLRSRLTISVDTSKNQFSLKLSSLTAADTAVYYCARDSAFGSFDYWGQGTLVTVSS VL: DIRVTQSPSSLSASVGDRVTITCQANEDISIYLNWYQQRPGKAPKLLIYDASNLETGVPSRFSGSGSGTDFTFTISSLQPEDFATYYCQQYHTYPFTFGGGTKVDIKR |  |  |  |  |  |  |  | binding result (human RGMc): binds
AE12-15 (antibody, V domains shown, lambda light chain) VH: EVQLVQSGAEVKEPGASVKVSCKASGYTFTDYYIQWVRQAPGHGLEWMGWINPKTGGTNYLQKFQGRVTMTRDTSTRTAYMELSSLRSDDTAFYYCVREDMNTVLATSWFDPWGQGTLVTVSS VL: SYELTQPPSVSVSPGQTARITCSGNQLGHKFASWYQQKPGQSPVVVIYEDKKRPSGIPERFSGSNSGNTATLTISGTQAMDEADYYCQVWDVITDHYVFGTGTKVTVLG |  |  |  |  |  |  |  | binding result (human RGMc): binds
AE12-3 (antibody, V domains shown, lambda light chain) VH: EVQLVESGGGLVQPGRSLRLSCAASGFTFDDYAMHWVRQAPGKGLEWVAVISYDGSNKYYADSVKGRFTISRDNSKNTLYLQMNSLRAEDTAVYYCARERVYSSGKEGYYYGMDVWGQGTMVTVSS VL: QSGLTQPPSVSAAPGQRVTISCTGSGSNIGAGYGVHWYQQLPATAPKILIYGDYNRPSGVPDRFSGSRSGTSASLTITGLQAEDEADYYCQSYDNSLRGVLFGGGTKLTVL |  |  |  |  |  |  |  | binding result (hRGMc-His [2]): no binding (tested: 100 nM)
AE12-5 (antibody, V domains shown, kappa light chain) VH: EVQLVQSGAEVKKPGASVKVSCKVSGHSLSELTIHWVRQAPGKGLEWMGGFDPEDGRGTYAPNFRGRVTMTEDTSTDTAYMELSGLRSEDAAVYYCATLLGEYDSYFDLWGRGTLVTVSS VL: DVVMTQSPDFQSVTPEDKVTITCRASQSIGSCLHWYQQKPDQSPKLLIKYASQSISGVPSRFSGSGSGTDFTLTINSLEAEDAATYYCHQSSSLPYTFGQGTKLEIK |  |  |  |  |  |  |  | binding result (hRGMc-His [2]): no binding (tested: 100 nM)
AE12-7 (antibody, V domains shown, lambda light chain) VH: EVQLVESGGGLVQPGGSLRLSCAASGFTSSSYAMTWVRQAPGKGLEWVSGISGSGESTYYADSVKGRFTISRDNSKNTLYLQMNSLRVEDTAIYYCARQGYGAHDYWGQGTLVTVSS VL: not shown |  |  |  |  |  |  |  | binding result (hRGMc-His [1]): binds
AE12-1-F (antibody, V domains shown, AE12-1 variant, Cys of VL CDR-L3 replaced; IgG) VH: EVQLVQSGAEVKKPGASVKVSCKASGYTFTSHGISWVRQAPGQGLDWMGWISPYSGNTNYAQKLQGRVTMTTDTSTSTAYMELSSLRSEDTAVYYCARVGSGPYYYMDVWGQGTLVTVSS VL: QSALTQPRSVSGSPGQSVTISCTGTSSSVGDSIYVSWYQQHPGKAPKLMLYDVTKRPSGVPDRFSGSKSGNTASLTISGLQAEDEADYYCFSYAGTDTLFGGGTKVTVL | 1.4 | 3.9e-05 | 27000 | 5.4 | 0.00025 | 44000 | no binding | fold increased affinity vs parental AE12-1 (hRGMa-His [5]): 5 fold
AE12-1-K (antibody, V domains shown, AE12-1 variant; IgG) VH: EVQLVQSGAEVKKPGASVKVSCKASGYTFTSHGISWVRQAPGQGLDWMGWISPYSGNTNYAQKLQGRVTMTTDTSTSTAYMELSSLRSEDTAVYYCARVGSGPYYYMDVWGQGTLVTVSS VL: QSALTQPRSVSGSPGQSVTISCTGTSSSVGDSIYVSWYQQHPGKAPKLMLYDVTKRPSGVPDRFSGSKSGNTASLTISGLQAEDEADYYCKSYAGTDTLFGGGTKVTVL | 8.8 | 0.0003 | 34000 | 9.3 | 0.00047 | 51000 | no binding | 
AE12-1-I (antibody, V domains shown, AE12-1 variant; IgG) VH: EVQLVQSGAEVKKPGASVKVSCKASGYTFTSHGISWVRQAPGQGLDWMGWISPYSGNTNYAQKLQGRVTMTTDTSTSTAYMELSSLRSEDTAVYYCARVGSGPYYYMDVWGQGTLVTVSS VL: QSALTQPRSVSGSPGQSVTISCTGTSSSVGDSIYVSWYQQHPGKAPKLMLYDVTKRPSGVPDRFSGSKSGNTASLTISGLQAEDEADYYCISYAGTDTLFGGGTKVTVL | 4.5 | 0.00013 | 30000 | 8.9 | 0.00087 | 99000 | no binding | 
AE12-1-H (antibody, V domains shown, AE12-1 variant; IgG) VH: EVQLVQSGAEVKKPGASVKVSCKASGYTFTSHGISWVRQAPGQGLDWMGWISPYSGNTNYAQKLQGRVTMTTDTSTSTAYMELSSLRSEDTAVYYCARVGSGPYYYMDVWGQGTLVTVSS VL: QSALTQPRSVSGSPGQSVTISCTGTSSSVGDSIYVSWYQQHPGKAPKLMLYDVTKRPSGVPDRFSGSKSGNTASLTISGLQAEDEADYYCHSYAGTDTLFGGGTKVTVL | 3.8 | 0.00012 | 32000 | 13.4 | 0.00063 | 47000 | no binding | 
AE12-1-V (antibody, V domains shown, AE12-1 variant; read as AE12-1-V from the order of the variants; IgG) VH: EVQLVQSGAEVKKPGASVKVSCKASGYTFTSHGISWVRQAPGQGLDWMGWISPYSGNTNYAQKLQGRVTMTTDTSTSTAYMELSSLRSEDTAVYYCARVGSGPYYYMDVWGQGTLVTVSS VL: QSALTQPRSVSGSPGQSVTISCTGTSSSVGDSIYVSWYQQHPGKAPKLMLYDVTKRPSGVPDRFSGSKSGNTASLTISGLQAEDEADYYCVSYAGTDTLFGGGTKVTVL | 5.9 | 0.00015 | 25000 | 9.2 | 0.00099 | 110000 | no binding | 
AE12-1-L (antibody, V domains shown, AE12-1 variant; IgG; also called AE-12-L) VH: EVQLVQSGAEVKKPGASVKVSCKASGYTFTSHGISWVRQAPGQGLDWMGWISPYSGNTNYAQKLQGRVTMTTDTSTSTAYMELSSLRSEDTAVYYCARVGSGPYYYMDVWGQGTLVTVSS VL: QSALTQPRSVSGSPGQSVTISCTGTSSSVGDSIYVSWYQQHPGKAPKLMLYDVTKRPSGVPDRFSGSKSGNTASLTISGLQAEDEADYYCLSYAGTDTLFGGGTKVTVL | 6.6 | 0.00025 | 38000 | 10.1 | 0.00067 | 62000 | no binding | 
AE12-13 (antibody, V domains shown, kappa light chain) VH: EVQLQESGAGLLKPSETLSLTCAVYGGSFSGYYWSWIRQPPGKGLEWIGEINHSGSTNYNPSLKSRVTISVDTSKNQFSLKLSSVTAADTAVYYCARDDGAGVFDLWGRGTLVTVSS VL: DIQLTQSPSSLSASVGDGVTITCQASQDISNYLNWYQQKPGKAPKLLIYDASNLETGVPSRFSGSGSGTFFTLTINNLQPEDFATYYCQQSGNTPWTFGQGTKVEINR |  |  |  |  |  |  |  | binding result (human RGMc): binds
